Values quoted from earlier work, collected in paper PMC10060530.

Experiments:
[1] = target: NaV1.4 (Rattus norvegicus) (UniProt P15390)
[2] = target: NaV1.2 (Rattus norvegicus) (UniProt P04775)
[3] = target: NaV1.7 (Homo sapiens) (UniProt Q15858)
Chain of UniProt Q15858 (Q15858 whole entry): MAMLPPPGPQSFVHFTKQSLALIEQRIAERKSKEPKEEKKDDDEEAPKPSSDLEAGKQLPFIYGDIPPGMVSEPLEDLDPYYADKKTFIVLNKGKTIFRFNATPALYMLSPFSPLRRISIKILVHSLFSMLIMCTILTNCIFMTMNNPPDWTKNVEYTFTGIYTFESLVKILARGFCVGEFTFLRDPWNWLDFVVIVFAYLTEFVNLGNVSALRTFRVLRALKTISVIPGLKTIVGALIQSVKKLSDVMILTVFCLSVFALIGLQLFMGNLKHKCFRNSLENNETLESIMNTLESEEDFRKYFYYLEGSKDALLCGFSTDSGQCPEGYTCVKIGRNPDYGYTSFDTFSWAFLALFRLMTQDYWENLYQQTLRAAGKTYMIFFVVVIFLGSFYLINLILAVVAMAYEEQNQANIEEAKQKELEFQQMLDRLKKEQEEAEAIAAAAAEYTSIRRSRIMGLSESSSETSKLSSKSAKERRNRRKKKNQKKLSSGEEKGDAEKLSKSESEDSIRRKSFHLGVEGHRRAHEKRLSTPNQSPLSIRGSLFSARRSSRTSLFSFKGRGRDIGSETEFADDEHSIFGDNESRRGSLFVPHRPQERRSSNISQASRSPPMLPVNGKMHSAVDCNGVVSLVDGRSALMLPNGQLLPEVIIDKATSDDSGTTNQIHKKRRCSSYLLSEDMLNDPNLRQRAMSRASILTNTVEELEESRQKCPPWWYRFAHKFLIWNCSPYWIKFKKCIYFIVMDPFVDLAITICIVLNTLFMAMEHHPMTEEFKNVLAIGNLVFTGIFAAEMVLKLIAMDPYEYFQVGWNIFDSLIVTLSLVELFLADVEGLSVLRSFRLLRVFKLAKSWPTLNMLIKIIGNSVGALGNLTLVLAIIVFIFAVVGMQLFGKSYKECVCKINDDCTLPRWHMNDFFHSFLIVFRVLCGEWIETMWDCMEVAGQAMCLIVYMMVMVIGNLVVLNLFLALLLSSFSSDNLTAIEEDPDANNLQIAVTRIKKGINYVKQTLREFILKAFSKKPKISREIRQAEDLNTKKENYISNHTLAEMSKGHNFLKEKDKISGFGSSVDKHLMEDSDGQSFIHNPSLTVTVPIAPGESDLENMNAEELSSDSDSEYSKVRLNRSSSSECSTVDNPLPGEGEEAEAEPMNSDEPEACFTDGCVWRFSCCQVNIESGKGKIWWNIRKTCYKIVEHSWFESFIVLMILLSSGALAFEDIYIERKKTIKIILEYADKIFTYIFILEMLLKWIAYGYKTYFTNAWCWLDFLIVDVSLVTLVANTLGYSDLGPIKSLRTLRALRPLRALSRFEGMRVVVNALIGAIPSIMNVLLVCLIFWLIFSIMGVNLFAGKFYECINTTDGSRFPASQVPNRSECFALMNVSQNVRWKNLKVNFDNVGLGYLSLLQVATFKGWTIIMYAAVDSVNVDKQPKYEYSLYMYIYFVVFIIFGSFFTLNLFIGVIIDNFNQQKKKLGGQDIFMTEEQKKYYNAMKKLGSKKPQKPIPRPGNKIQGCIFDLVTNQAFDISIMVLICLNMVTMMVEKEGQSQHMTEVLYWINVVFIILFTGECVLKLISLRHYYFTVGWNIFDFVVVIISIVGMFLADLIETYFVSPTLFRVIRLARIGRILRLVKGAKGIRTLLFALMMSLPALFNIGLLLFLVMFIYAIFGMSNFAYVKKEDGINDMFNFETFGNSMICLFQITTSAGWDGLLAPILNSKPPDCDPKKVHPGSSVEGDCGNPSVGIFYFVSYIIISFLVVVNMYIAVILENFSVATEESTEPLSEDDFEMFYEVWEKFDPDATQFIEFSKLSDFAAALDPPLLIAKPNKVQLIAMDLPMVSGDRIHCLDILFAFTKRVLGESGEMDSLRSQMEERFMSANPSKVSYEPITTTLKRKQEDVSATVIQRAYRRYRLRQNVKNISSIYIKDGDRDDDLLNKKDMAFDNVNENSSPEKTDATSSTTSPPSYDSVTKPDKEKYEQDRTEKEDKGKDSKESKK

Chain of UniProt P04775 (P04775 whole entry): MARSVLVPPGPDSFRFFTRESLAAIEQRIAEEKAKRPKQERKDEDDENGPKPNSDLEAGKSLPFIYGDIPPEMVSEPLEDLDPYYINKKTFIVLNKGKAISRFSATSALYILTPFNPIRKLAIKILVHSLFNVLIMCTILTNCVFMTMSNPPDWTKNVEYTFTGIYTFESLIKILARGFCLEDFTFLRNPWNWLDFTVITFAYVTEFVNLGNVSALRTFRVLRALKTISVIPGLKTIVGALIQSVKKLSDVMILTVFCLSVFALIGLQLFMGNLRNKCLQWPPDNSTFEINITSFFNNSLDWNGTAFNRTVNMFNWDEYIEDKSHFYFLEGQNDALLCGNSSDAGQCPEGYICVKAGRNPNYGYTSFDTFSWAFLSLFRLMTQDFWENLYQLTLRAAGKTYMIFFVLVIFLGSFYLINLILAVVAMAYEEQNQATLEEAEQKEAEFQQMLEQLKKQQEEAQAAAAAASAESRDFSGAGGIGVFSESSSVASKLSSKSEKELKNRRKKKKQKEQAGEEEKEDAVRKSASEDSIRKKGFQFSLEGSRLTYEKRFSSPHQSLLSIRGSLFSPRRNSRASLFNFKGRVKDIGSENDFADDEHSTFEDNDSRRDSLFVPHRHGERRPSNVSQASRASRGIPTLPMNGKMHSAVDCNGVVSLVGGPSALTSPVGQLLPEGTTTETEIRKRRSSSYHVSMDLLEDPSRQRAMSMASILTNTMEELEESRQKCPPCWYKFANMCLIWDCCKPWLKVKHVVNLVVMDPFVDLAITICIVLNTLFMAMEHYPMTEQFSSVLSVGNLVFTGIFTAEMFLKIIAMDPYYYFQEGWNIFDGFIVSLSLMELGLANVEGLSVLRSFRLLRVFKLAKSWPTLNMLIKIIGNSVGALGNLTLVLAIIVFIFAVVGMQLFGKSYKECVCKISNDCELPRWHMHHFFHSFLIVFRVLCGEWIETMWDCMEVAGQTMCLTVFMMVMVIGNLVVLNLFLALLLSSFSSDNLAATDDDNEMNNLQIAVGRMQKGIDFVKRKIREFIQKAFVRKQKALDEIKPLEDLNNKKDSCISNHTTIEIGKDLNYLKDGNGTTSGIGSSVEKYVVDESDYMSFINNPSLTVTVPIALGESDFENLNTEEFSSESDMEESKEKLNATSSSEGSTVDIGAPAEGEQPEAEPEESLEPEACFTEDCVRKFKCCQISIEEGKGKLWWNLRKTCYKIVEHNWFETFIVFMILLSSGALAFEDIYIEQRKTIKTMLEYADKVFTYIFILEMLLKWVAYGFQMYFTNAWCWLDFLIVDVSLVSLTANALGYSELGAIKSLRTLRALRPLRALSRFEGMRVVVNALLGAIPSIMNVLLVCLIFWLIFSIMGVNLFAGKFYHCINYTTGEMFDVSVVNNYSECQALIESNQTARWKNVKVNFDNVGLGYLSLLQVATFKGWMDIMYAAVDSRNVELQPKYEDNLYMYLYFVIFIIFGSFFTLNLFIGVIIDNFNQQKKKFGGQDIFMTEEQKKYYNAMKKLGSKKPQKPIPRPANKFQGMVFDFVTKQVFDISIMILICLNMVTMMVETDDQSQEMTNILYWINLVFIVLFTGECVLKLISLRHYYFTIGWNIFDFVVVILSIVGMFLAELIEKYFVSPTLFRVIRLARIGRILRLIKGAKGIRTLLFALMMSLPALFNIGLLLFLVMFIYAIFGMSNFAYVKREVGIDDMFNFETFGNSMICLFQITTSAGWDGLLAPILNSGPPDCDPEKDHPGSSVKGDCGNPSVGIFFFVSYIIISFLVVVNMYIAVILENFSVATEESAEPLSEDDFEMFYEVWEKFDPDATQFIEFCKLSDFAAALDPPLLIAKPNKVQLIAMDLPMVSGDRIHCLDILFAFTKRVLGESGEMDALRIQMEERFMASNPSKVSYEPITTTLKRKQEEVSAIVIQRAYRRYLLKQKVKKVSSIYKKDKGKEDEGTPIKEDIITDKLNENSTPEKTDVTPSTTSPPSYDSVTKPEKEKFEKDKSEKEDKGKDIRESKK

## mu-conotoxin KIIIA (from UniProt P0C195)
[1]
  Kd: 37 nM
[2]
  Kd: 5 nM
[3]
  Kd: 97 nM
